B1: TIGIT-002-H4L3 (antibody, V domains shown)
VH: EVQLQESGPGLVKPSETLSLTCAVSGYSITSDSWNWIRQPPGKKLEYIGYISYSGNTYYNPSLKSRVTISRDTSKNQFSLKLSSVTAADTAVYYCARLDFSNYGGAVDYWGQGTTVTVSS
VL: DIVMTQSPDSLAVSLGERATINCKASQNVRTAVAWYQQKPGQSPKLMIYSASYRYTGVPDRFSGSGSGTDFTLTISSLQAEDVAVYYCQQYYTTPWTFGGGTKVEIK
notes: Humanized anti-TIGIT antibody
B2: TIGIT-005-H2L1d (antibody, V domains shown)
VH: EVQLVQSGAEVKKPGASVKVSCKASGYAFTNYLIEWVRQAPGQRLEWMGVINPGSGGTNYKEKFKGRVTITADKSSSTAYMELSSLRSEDTAVYYCARGEYFFFDYWGQGTTVTVSS
VL: B1 VL with N28H, R30S, T31N, Q38H, M47L, Y91H, T93N, W96H
notes: Humanized anti-TIGIT antibody with NG-site mutation in VL
B3: TIGIT-006-H5L3 (antibody, V domains shown)
VH: B1 VH with I29M, S33Y, N56R, L98G, F100Y, V107M, D108Y, Y109D
VL: DIVMTQSPDSLAVSLGERATINCRASQGVSTTIAWYQQKPGQSPKLLIYSASYRYTGVPRFSGSGSGTDFTLTISSLQAEDVAVYYCQQYYSSPFTFGGGTKVEIK
notes: Humanized anti-TIGIT antibody
B4: TIGIT-070-H1L1 (antibody, V domains shown)
VH: EVQLVQSGAEVKKPGASVKVSCKASGYTFTNYYMHWVRQAPGQRLEWMGRIDPDSGGSKYNEKFKSRVTITVDKSASTAYMELSSLRSEDTAVYYCAREGHYGFYSDYWGQGTTVTVSS
VL: DIQMTQSPSSLSASVGDRVTITCRVSENIYSYLAWYQQKPGKSPKLLIYNAKTLAEGVPSRFSGSGSGTDFTLTISSLQPEDFATYYCQHHYGNPLTFGPGTKVDIK
notes: Humanized anti-TIGIT antibody
B5: PVRIG-A50 (Fc fusion)
chain: EVQLVESGGGLVQPGGSLRLSCAASGFTFSYYDMSWVRQAPGKGLEWVSTINSNGGRTSYVDSVKGRFTISRDNTKNTLYLQMNSLKPEDTAVYYCVEGDPHNFGLENLSLRDFGSWGQGTQVTVSS
notes: heavy chain antibody VHH-hinge-CH2-CH3, human IgG1 constant part; also called PVRIG-50; not shown: human IgG1 hinge-CH2-CH3
B6: PVRIG-A118 (Fc fusion)
chain: QVQLVESGGGLVQAGGSLRLSCAASETYFDLYVMGWYRQAPGKDRELVATITYTGSIKIVDSVKDRFTISRGDAKNTVSLQMSSLKPEDTAVYFCNADPSGLGRKVYWGQGTQVTVSS
notes: heavy chain antibody VHH-hinge-CH2-CH3, human IgG1 constant part; not shown: human IgG1 hinge-CH2-CH3
B7: PVRIG-A105 (Fc fusion)
chain: EVQLVESGGGLVQAGGSLRLSCAASGRTFDRHTMTWFRQAPGKEREFVATASRIPGDTYYSHSVKGRFTISRDNAKNTVYLQLNNLKPEDTAVYYCAATSAYCSEVDCYEKGSWYDNWGQGIQVTVSS
notes: as for B6

Numbering of substitutions follows the chain as printed.

The target of the first assay is T1, Fusion protein of extracellular domain of human TIGIT and mouse IgG2a Fc fragment (human TIGIT ECD-mFc) (human).
T1 construct: The entry includes the signal peptide (limits not recoverable) and the mouse IgG2a Fc
T1 chain: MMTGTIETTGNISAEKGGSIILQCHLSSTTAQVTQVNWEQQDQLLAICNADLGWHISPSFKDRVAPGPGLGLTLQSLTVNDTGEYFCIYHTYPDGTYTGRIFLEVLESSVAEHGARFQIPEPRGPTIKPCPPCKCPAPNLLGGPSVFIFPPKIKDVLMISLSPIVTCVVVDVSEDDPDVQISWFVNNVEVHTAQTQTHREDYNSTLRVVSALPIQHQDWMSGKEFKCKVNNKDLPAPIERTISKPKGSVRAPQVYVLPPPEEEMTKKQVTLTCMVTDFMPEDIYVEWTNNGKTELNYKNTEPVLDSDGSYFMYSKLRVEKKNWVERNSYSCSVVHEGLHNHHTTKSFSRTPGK
Description: FACS; blocking of TIGIT ECD-mFc binding to CHO-K1 CD112 cells. How it is done: The collected CHO-K1 CD112 cells were washed once with PBS (Hyclone, CAT #SH30256) and resuspended to 2×10⁵/40 μL with 1% BSA-PBS. The anti-TIGIT humanized antibodies were diluted to 600 nM with 1% BSA-PBS (diluted by 2.5-fold serial dilution for 12 concentration points). The TIGIT ECD-mFc was diluted with 1% BSA-PBS to 6 μg/mL. The 40 μL cells were then mixed with 40 μL diluted antibodies and 40 μL diluted TIGIT ECD-mFc, and then incubated at 4° C. for 60 minutes. […] The cell samples were washed twice with PBS, resuspended to 100 μL/well with 1% BSA-PBS and then analyzed by flow cytometry (BD, Canto II). […] (f) The binding activity of anti-TIGIT humanized antibodies to human PBMCs detected by FACS.
(In general: Flow cytometry measures light scatter and fluorescence of single cells or particles in a stream.)
For orientation: IC50 means the concentration needed to halve the response being measured. For B1, the IC50 amounted to 3.49 nM.

The molecule B2 showed an IC50 of 3.49 nM.

For the molecule B3, the IC50 amounted to 4.65 nM.

With B4, the IC50 worked out at 4.3 nM.

The target of a further assay is T2, human PVRIG-mFc protein (Acro, PVG-H5253) (human, UniProt Q6DKI7 41-171, limits assumed).
T2 construct: bought protein
T2 sequence (looked up): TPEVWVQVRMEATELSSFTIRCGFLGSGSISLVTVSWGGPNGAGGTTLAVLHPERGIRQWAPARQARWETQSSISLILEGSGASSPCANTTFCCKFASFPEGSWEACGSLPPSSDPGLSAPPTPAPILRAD
Description: FACS competition, PVRIG-mFc binding to CHO-K1-CD112 cells, competitor CD112 on cells. How it is done: A working solution of human PVRIG-mFc protein (Acro, PVG-H5253) prepared with staining buffer, 1 μg/mL (four-fold concentration), was added into a 96-well plate (50 μL PVRIG-mFc working solution per well). […] The diluted antibodies were added to the well containing 50 μL of PVRIG-mFc. The plate was placed on a microplate shaker at 400 rpm for 1 minute to fully mix the antibodies and PVRIG-mFc proteins, and then incubated at 4° C. for 30 minutes. After the incubation, the cell suspension prepared above (100 μL) was added into the wells, gently mixed with the pipette tip and incubated at 4° C. for 30 minutes. After the incubation, the cells were washed twice with staining buffer (200 μL per well) and centrifuged at 350×g for 5 minutes to discard the supernatant. The PE goat anti-mouse IgG Fc antibody (Biolegend, 405337) was diluted 250 times with staining buffer, added into the washed wells (100 μL per well), mixed well, and stained at 4° C. for 30 minutes. After staining, the cells were washed twice with staining buffer, finally resuspended with 200 μL staining buffer and analyzed by flow cytometry (BD, Canto II). The weaker the fluorescence signal, the stronger the ability of the antibodies blocks the binding of CHO-K1 human CD112 cells to the PVRIG-mFc protein. An antibody binding curve was drawn with concentration of antibodies as the abscissa and the corresponding Mean Fluorescence Intensity (MFI) as the ordinate. The IC50 value of the antibodies and the AUC value of the binding curve were calculated by using a Four Parameter Logistic Fit (GraphPadPrism9). The smaller the IC50 value and AUC value, the stronger the ability of the antibodies competes with CHO-K1-CD112 cells to bind to human PVRIG-mFc protein. […] […] The smaller the percentage value, the stronger the blocking ability of the antibodies.
In the case of B5, the “% AUC to COM701-hIgG4” value amounted to 104%, the “% AUC to SRF813-hIgG1” value worked out at 81%, the “% IC50 to COM701-hIgG4” value is 99.1% and the “% IC50 to SRF813-hIgG1” value was determined as 91.8%.

For B6, the “% AUC to COM701-hIgG4” value came to 110%, the “% AUC to SRF813-hIgG1” value is 75.6%, the “% IC50 to COM701-hIgG4” value stood at 111% and the “% IC50 to SRF813-hIgG1” value turned out to be 97.4%.

On to B7, for which the “% AUC to COM701-hIgG4” value was 115%, the “% AUC to SRF813-hIgG1” value came out at 84.1%, the “% IC50 to COM701-hIgG4” value is 99.7% and the “% IC50 to SRF813-hIgG1” value worked out at 97.7%.

The next assay addresses T3, Full-length human TIGIT on CHO-K1 cells (CHO-K1 human TIGIT) (human, UniProt Q495A1 22-244).
T3 construct: NCBI XP_024309156.1; the entry includes the signal peptide (limits not recoverable); The strain (high, medium, low) is named under assay; also called high expression strain 1D2; medium expression strain 2D10
T3 sequence: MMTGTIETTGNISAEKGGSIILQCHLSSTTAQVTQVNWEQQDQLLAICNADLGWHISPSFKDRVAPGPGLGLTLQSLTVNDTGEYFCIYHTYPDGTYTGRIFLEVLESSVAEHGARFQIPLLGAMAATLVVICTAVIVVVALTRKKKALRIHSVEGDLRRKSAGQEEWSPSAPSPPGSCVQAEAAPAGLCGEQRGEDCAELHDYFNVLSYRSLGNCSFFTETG
Description: FACS; CHO-K1 human TIGIT low expression strain. An outline of the steps: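 Flow cytometry was used to measure antibody binding to CHO-K1 cells carrying full-length human or cynomolgus monkey TIGIT. Antibodies were serially diluted 3-fold across 12 points from 80 nM, then combined 1:1 with cells held at 2×10⁵/50 μL in 1% BSA-PBS and kept at 4° C for 60 min.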
The EC50 is the concentration that produces a half-maximal response. In turn, B1 showed a 50% effective concentration (EC50) of 0.17 nM.

Molecule B2 registered an EC50 of 0.186 nM.

Take B3: a half-maximal effect (EC50) was put at 0.268 nM.

B4 gave an EC50 of 0.305 nM.

The target of another assay is T4, Fusion protein of extracellular domain of cynomolgus monkey TIGIT and mouse IgG2a Fc fragment (cynomolgus … (cynomolgus monkey)).
T4 construct: The entry includes the signal peptide (limits not recoverable) and the mouse IgG2a Fc
T4 sequence (chain, as listed by the source limits assumed): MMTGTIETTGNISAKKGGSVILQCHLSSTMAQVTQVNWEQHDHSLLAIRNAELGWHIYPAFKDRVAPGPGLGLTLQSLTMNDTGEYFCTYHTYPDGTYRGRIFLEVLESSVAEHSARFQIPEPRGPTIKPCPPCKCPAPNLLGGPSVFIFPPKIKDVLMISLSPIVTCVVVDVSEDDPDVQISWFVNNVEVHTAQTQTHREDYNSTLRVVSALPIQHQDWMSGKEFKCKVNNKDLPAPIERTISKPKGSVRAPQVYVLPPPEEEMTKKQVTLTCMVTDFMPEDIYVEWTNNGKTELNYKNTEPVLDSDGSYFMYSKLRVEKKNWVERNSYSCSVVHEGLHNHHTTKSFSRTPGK
Description: ELISA, cynomolgus monkey TIGIT ECD-mFc. (In an ELISA, binding on a coated surface is turned into a signal by an enzyme label.)
Molecule B1 yielded a half-maximal effective concentration (EC50) of 0.0427 nM.

Molecule B2 registered an EC50 of 0.0395 nM.

In turn, B3 showed an EC50 of 0.0406 nM.

B4 gave an EC50 of 0.0347 nM.

The target of another assay is T1, Fusion protein of extracellular domain …. Description: ELISA, human TIGIT ECD-mFc.
Molecule B1 showed an EC50 of 0.037 nM.

With B2, the EC50 was 0.0311 nM.

On to B3, for which the half-maximal effective concentration (EC50) was found to be 0.0319 nM.

Turning to B4, the concentration giving a half-maximal response (EC50) turned out to be 0.0284 nM.

These data come from US20240343803A1 (SHANDONG SIMCERE BIOPHARMACEUTICAL, published 2024).
